In article PMC2441799 (Nucleic Acids Research, 2008):

Target: full-length JDP2 protein fused to the yeast GAL4 DNA-binding domain (GAL4-DBD-JDP2) (rat, UniProt Q78E65 1-163)
Assay: two-hybrid

full-length JDP2 protein fused to the yeast GAL4 DNA-binding domain (GAL4-DBD-JDP2), sequence (Q78E65 whole entry, the tested form may be a part): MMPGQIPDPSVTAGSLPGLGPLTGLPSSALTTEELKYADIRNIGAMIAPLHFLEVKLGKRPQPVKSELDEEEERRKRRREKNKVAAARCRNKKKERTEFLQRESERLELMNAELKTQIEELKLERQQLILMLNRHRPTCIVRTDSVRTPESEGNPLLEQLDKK

fold potentiation of the 5 × UAS luciferase reporter (two-hybrid): 25 fold
B1: wild-type CHOP10 (expression plasmid, in NIH3T3 cells) (natural protein)
chain: MAAESLPFSFGTLSSWELEAWYEDLQEVLSSDENGGTYVSPPGNEEEESKIFTTLDPASLAWLTEEEPEPAEVTSTSQSPHSPDSSQSSLAQEEEEEDQGRTRKRKQSGHSPARAGKQRMKEKEQENERKVAQLAEENERLKQEIERLTREVEATRRALIDRMVNLHQA
